Source: article PMC11960969, “Mdga2 deficiency leads to an aberrant activation of BDNF/TrkB signaling that underlies autism-relevant synaptic and behavioral changes in mice” (PLOS Biology, 2025)

How the values were obtained:
TrkB (TrkB-Flag) = assay: Co-IP of MDGA2 and its truncations with TrkB-Flag in HEK293T cells; type: binding, human; details: HEK293T cells co-transfected with TrkB-Flag and GFP-tagged MDGA2 constructs
Protocol: Fig 3 MDGA2 interacts with TrkB and suppresses TrkB activity. (A) Primary hippocampal neurons derived from Mdga2^ +/− (Het) mice and their wild-type (WT) littermates at DIV 7 were treated with different doses of BDNF for 30 min. Equal amounts of protein lysates were subjected to immunoprecipitation (IP) with an anti-TrkB antibody, followed by immunoblotting with an anti-phosphotyrosine (pTyr) antibody or the anti-TrkB antibody. The pTyr levels were quantified by densitometry, normalized to total TrkB levels, and then compared to those of WT controls. n = 3 per group. (B) WT mouse brain lysates were subjected to IP with an anti-MDGA2 antibody and a control IgG, and immunoblotted (IB) for the components indicated. mBDNF, mature BDNF; ImBDNF, immature BDNF. (C) Hippocampal neurons from WT mice at DIV 7 were immunostained with antibodies against MDGA2 (red) and TrkB (green), and then counter-stained with DAPI (blue). Images were acquired by a confocal microscope. Scale bar: 10 μm. (D) Surface plasmon resonance (SPR) analysis of the binding between recombinant MDGA2 protein and recombinant TrkB protein. TrkB was immobilized on a Biacore CM5 chip and tested for its binding with MDGA2 at the concentrations indicated. (E) Computer simulation of the binding mode of TrkB and MDGA2. The predicted binding domain of TrkB (the d5 domain) is highlighted by a red square and labeled in brown. The predicted binding domain of MDGA2 (the MAM domain) is highlighted by a red square and labeled in yellow. […] Immunoprecipitated TrkB levels were quantified by densitometry, normalized to input levels, and compared to respective controls (set to one arbitrary units). n = 3 per group. […] Levels of phosphorylated proteins were quantified by densitometry, normalized to respective total protein levels and compared to controls (set to one arbitrary units). n = 6 per group. […] P-values were determined by two-tailed unpaired Student t-test in (A) and one-way ANOVA with Tukey’s multiple comparisons test in (H, I, J). *p < 0.05, **p < 0.01, ***p < 0.001, ns: not significant. […]

[1] = system: TrkB signaling (pTrkB, pAkt, pmTOR); assay: Immunoblotting of TrkB/Akt/mTOR phosphorylation in primary neurons transfected with MDGA2, ΔMAM or V930I; type: cell-based, mouse; details: for pAkt level normalized to total protein / pTrkB level normalized to total protein / pmTOR level normalized to total protein: KO neurons transfected, WT/Ctrl set to one
Protocol: Fig 3 MDGA2 interacts with TrkB and suppresses TrkB activity. (A) Primary hippocampal neurons derived from Mdga2^ +/− (Het) mice and their wild-type (WT) littermates at DIV 7 were treated with different doses of BDNF for 30 min. Equal amounts of protein lysates were subjected to immunoprecipitation (IP) with an anti-TrkB antibody, followed by immunoblotting with an anti-phosphotyrosine (pTyr) antibody or the anti-TrkB antibody. The pTyr levels were quantified by densitometry, normalized to total TrkB levels, and then compared to those of WT controls. n = 3 per group. (B) WT mouse brain lysates were subjected to IP with an anti-MDGA2 antibody and a control IgG, and immunoblotted (IB) for the components indicated. mBDNF, mature BDNF; ImBDNF, immature BDNF. (C) Hippocampal neurons from WT mice at DIV 7 were immunostained with antibodies against MDGA2 (red) and TrkB (green), and then counter-stained with DAPI (blue). Images were acquired by a confocal microscope. Scale bar: 10 μm. (D) Surface plasmon resonance (SPR) analysis of the binding between recombinant MDGA2 protein and recombinant TrkB protein. TrkB was immobilized on a Biacore CM5 chip and tested for its binding with MDGA2 at the concentrations indicated. (E) Computer simulation of the binding mode of TrkB and MDGA2. The predicted binding domain of TrkB (the d5 domain) is highlighted by a red square and labeled in brown. The predicted binding domain of MDGA2 (the MAM domain) is highlighted by a red square and labeled in yellow. (F) HEK293T cells were co-transfected with TrkB-Flag and GFP-tagged full-length MDGA2 (MDGA2-GFP) or an MDGA2 deletion fragment lacking the entire MAM domain (ΔMAM-GFP). Cell lysates were subjected to IP with control IgG and antibodies against Flag or GFP, and immunoblotted for the components indicated. […] The scheme of MDGA2-ΔMAM is also shown. (G) HeLa cells were co-transfected with TrkB that is tagged with the N-terminal Venus fragment (TrkB-VN) and full-length MDGA2 or MDGA2-ΔMAM that are tagged with the C-terminal Venus fragment (MDGA2-VC or ΔMAM-VC) for 24 h. After immunostaining with antibodies against MDGA2/MDGA2-ΔMAM (pink) and TrkB (red), cells were observed by confocal microscopy. Venus signal (green) indicates the interaction between MDGA2 and TrkB. Schematic diagrams depicting the BiFC assay are also shown. Scale bars: 10 μm. (H, I) Equal amounts of protein lysates from primary neurons derived from Het, KO, and their WT littermate mice (H), and from WT primary neurons transfected with GFP control, MDGA2-GFP or ΔMAM-GFP (I) were subjected to IP with IgG and an anti-BDNF antibody, and then immunoblotted for the components indicated. Immunoprecipitated TrkB levels were quantified by densitometry, normalized to input levels, and compared to respective controls (set to one arbitrary units). n = 3 per group. (J) Neurons derived from KO mice were transfected with GFP control (Ctrl), MDGA2-GFP, or MDGA2-ΔMAM-GFP, and neurons derived from their WT littermates were transfected with GFP control (Ctrl). Equal amounts of protein lysates were subjected to immunoblotting for the proteins indicated. Levels of phosphorylated proteins were quantified by densitometry, normalized to respective total protein levels and compared to controls (set to one arbitrary units). n = 6 per group. Data represent mean ± SEM. P-values were determined by two-tailed unpaired Student t-test in (A) and one-way ANOVA with Tukey’s multiple comparisons test in (H, I, J). *p < 0.05, **p < 0.01, ***p < 0.001, ns: not significant. The data underlying this figure can be found in S1 Data, specifically in the sheet labeled “Figure 3”.
Fig 7 The autism spectrum disorder (ASD)-associated MDGA2 V930I mutation impairs the MDGA2-TrkB interaction and MDGA2’s inhibitory effect on the tyrosine kinase B (TrkB) signaling. (A) Schematic depiction of the WT human MDGA2 and its V930I mutation constructs that are tagged with GFP. […]

B1: MDGA2-ΔMAM: truncated form of MDGA2 lacking its MAM domain (protein)
chain: PPTVRIVHSGLACNIEEERYSERVYTIREGETLELTCLVTGHPRPQIRWTKTAGSASDRFQDSSVFNETLRITNIQRHQGGRYYCKAENGLGSPAIKSIRVDVYYLDDPVVTVHQSIGEAKEQFYYERTVFLRCVANSNPPVRYSWRRGQEVLLQGSDKGVEIYEPFFTQGETKILKLKNLRPQDYANYSCIASVRNVCNIPDKMVSFRLSNKTASPSIKLLVDDPIVVNPGEAITLVCVTTGGEPAPSLTWVRSFGTLPEKTVLNGGTLTIPAITSDDAGTYSCIANNNVGNPAKKSTNIIVRALKKGRFWITPDPYHKDDNIQIGREVKISCQVEAVPSEELTFSWFKNGRPLRSSERMVITQTDPDVSPGTTNLDIIDLKFTDFGTYTCVASLKGGGISDISIDVNISSSTVPPNLTVPQEKSPLVTREGDTIELQCQVTGKPKPIILWSRADKEVAMPDGSMQMESYDGTLRIVNVSREMSGMYRCQTSQYNGFNVKPREALVQLIVQYPPAVEPAFLEIRQGQDRSVTMSCRVLRAYPIRVLTYEWRLGNKLLRTGQFDSQEYTEYAVKSLSNENYGVYNCSIINEAGAGRCSFLVTGKAYAPEFYYDTYNPVWQNRHRVYSYSLQWTQMNPDAVDRIVAYRLGIRQAGQQRWWEQEIKINGNIQKGELITYNLTELIKPEAYEVRLTPLTKFGEGDSTIRVIKYSAPVNPHLREQDLATKNSVD
modifications: left off: GFP, end not stated, kept
notes: truncated form of MDGA2 lacking its MAM domain
interaction with TrkB (Co-IP) (TrkB (TrkB-Flag)): abolished the MDGA2-TrkB interaction | pAkt level normalized to total protein ([1]; replicate 1): 2.92 arbitrary units | pTrkB level normalized to total protein ([1]; replicate 1): 2.14 arbitrary units | pmTOR level normalized to total protein ([1]; replicate 1): 3.01 arbitrary units | pAkt level normalized to total protein ([1]; replicate 2): 2.51 arbitrary units | pTrkB level normalized to total protein ([1]; replicate 2): 2.17 arbitrary units | pmTOR level normalized to total protein ([1]; replicate 2): 2.5 arbitrary units | pAkt level normalized to total protein ([1]; replicate 3): 2.41 arbitrary units | pTrkB level normalized to total protein ([1]; replicate 3): 2.23 arbitrary units | pmTOR level normalized to total protein ([1]; replicate 3): 2.06 arbitrary units | pAkt level normalized to total protein ([1]; replicate 4): 2.21 arbitrary units | pTrkB level normalized to total protein ([1]; replicate 4): 2.41 arbitrary units | pmTOR level normalized to total protein ([1]; replicate 4): 1.59 arbitrary units | pAkt level normalized to total protein ([1]; replicate 5): 1.76 arbitrary units | pTrkB level normalized to total protein ([1]; replicate 5): 2.01 arbitrary units | pmTOR level normalized to total protein ([1]; replicate 5): 1.49 arbitrary units | pAkt level normalized to total protein ([1]; replicate 6): 1.68 arbitrary units | pTrkB level normalized to total protein ([1]; replicate 6): 1.69 arbitrary units | pmTOR level normalized to total protein ([1]; replicate 6): 1.31 arbitrary units | overactivation of TrkB signaling (pTrkB, pAkt, pmTOR) upon expression ([1]; Mdga2-/- neurons, Fig 3J, n = 6): not MDGA2-ΔMAM
